According to PMC4722452:

What was measured:
Sos^CatW729E = Sos^CatW729E (UniProt Q07889); experiment: other fluorescence titration; quenching of the intrinsic Trp fluorescence of Sos (10 μM) on adding Ras (1-50 μM) in Hepes buffer; excitation 295 nm, emission 336 nm; single-site quadratic fit; overall apparent (macroscopic) Kd
[1] = biological target: Sos^Cat (Son of Sevenless, residues 563-1049) (UniProt Q07889); experiment: as above
[2] = biological target: Sos^Cat (Son of Sevenless, residues 563-1049) (UniProt Q07889); experiment: NMR titration; 1H,13C HMQC of [13C-methyl-Met,Ile]Sos^Cat or Sos^CatW729E (60 μM) with unlabelled Ras added at Ras:Sos 0.5:1 to 4:1; 298 K; Met methyl reporter signals M726 (allosteric), M824 (catalytic), M714 (between)

Substance	Kd (Sos^CatW729E)	Kd [1]	apparent microscopic Kd, allosteric site (from the M726 signal shift) [2]
H-Ras·GTPγS (from UniProt P01112 1-166) (domain or fragment)	28 µM	–	–
K-RasG12V·GTPγS (from UniProt P01116 1-166) (domain or fragment)	–	31 µM	–
H-Ras·GDP (from UniProt P01112 1-166) (domain or fragment)	67 µM	–	–
K-Ras·GTPγS (from UniProt P01116 1-166) (domain or fragment)	–	10 µM	2 µM
